The target of experiment [1] is human TPO receptor (MPL) expressed on Ba/F3 cells (human) (UniProt P40238). Briefly: cell-based or functional assay.
The target is the same in experiment [2]. Briefly: cell-based or functional assay. The source holds these as a separate data set.

Take “human TPO (R&D Systems) (from UniProt P40225 22-353) (ligand)”: the ED50, proliferation of BaF/mpl cells (WST-8) in experiment [1] was 0.027 nM.

B1: antibody 12B5 (IgG) (antibody, from another filing)
scFv: QVQLVQSGGGLVRPGGSLSLSCAVSGITLRTYGMHWVRQAPGKGLEWVAGISFDGRSEYYADSVQGRFTISRDSSKNTLYLQMNSLRAEDTAVYYCARGAHYGFDIWGQGTMVTVSSGGGGTGGGGSGGGGSDIQMTQSPSTLSASIGDRVTITCRASEGIYHWLAWYQQKPGKAPKLLIYKASSLASGAPSRFSGSGSGTDFTLTISSLQPDDFATYYCQQYSNYPLTFGGGTKLEIK
The molecule B1 had an ED50, TPO-like agonist activity, proliferation of BaF/mpl cells (WST-8) in experiment [2] of 29 nM.

The values above are taken from patent EP1327681A1.
